This test deals with T1, staphylococcal enterotoxin B (SEB) (Staphylococcus aureus, UniProt P01552 28-266).
T1 sequence: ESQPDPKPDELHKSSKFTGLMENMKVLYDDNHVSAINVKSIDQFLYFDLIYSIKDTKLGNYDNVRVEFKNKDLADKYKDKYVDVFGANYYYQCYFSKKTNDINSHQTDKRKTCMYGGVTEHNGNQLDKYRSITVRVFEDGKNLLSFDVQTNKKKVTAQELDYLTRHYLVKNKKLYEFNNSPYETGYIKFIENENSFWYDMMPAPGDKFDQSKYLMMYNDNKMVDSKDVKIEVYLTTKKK
Nature of the test: SPR. Background: Surface plasmon resonance follows binding to a sensor surface in real time, without labels.

Consider 1 molecule from publication PMC7117543 (Biochemical and Biophysical Research Communications, 2008).

Consider QHPQINQTLYRM [phage clone 9 (M13 phage displaying QHPQINQTLYRM)], for which the binding result was “binds”.
